The values that follow are results of earlier work, collected in paper PMC10060530.

Data set [1] addresses NaV1.4 (Rattus norvegicus) (UniProt P15390).
A further data set addresses NaV1.7 (Homo sapiens) (UniProt Q15858).
In data set [2] the target is NaV1.2 (Rattus norvegicus) (UniProt P04775).
UniProt P04775, sequence (P04775 whole entry): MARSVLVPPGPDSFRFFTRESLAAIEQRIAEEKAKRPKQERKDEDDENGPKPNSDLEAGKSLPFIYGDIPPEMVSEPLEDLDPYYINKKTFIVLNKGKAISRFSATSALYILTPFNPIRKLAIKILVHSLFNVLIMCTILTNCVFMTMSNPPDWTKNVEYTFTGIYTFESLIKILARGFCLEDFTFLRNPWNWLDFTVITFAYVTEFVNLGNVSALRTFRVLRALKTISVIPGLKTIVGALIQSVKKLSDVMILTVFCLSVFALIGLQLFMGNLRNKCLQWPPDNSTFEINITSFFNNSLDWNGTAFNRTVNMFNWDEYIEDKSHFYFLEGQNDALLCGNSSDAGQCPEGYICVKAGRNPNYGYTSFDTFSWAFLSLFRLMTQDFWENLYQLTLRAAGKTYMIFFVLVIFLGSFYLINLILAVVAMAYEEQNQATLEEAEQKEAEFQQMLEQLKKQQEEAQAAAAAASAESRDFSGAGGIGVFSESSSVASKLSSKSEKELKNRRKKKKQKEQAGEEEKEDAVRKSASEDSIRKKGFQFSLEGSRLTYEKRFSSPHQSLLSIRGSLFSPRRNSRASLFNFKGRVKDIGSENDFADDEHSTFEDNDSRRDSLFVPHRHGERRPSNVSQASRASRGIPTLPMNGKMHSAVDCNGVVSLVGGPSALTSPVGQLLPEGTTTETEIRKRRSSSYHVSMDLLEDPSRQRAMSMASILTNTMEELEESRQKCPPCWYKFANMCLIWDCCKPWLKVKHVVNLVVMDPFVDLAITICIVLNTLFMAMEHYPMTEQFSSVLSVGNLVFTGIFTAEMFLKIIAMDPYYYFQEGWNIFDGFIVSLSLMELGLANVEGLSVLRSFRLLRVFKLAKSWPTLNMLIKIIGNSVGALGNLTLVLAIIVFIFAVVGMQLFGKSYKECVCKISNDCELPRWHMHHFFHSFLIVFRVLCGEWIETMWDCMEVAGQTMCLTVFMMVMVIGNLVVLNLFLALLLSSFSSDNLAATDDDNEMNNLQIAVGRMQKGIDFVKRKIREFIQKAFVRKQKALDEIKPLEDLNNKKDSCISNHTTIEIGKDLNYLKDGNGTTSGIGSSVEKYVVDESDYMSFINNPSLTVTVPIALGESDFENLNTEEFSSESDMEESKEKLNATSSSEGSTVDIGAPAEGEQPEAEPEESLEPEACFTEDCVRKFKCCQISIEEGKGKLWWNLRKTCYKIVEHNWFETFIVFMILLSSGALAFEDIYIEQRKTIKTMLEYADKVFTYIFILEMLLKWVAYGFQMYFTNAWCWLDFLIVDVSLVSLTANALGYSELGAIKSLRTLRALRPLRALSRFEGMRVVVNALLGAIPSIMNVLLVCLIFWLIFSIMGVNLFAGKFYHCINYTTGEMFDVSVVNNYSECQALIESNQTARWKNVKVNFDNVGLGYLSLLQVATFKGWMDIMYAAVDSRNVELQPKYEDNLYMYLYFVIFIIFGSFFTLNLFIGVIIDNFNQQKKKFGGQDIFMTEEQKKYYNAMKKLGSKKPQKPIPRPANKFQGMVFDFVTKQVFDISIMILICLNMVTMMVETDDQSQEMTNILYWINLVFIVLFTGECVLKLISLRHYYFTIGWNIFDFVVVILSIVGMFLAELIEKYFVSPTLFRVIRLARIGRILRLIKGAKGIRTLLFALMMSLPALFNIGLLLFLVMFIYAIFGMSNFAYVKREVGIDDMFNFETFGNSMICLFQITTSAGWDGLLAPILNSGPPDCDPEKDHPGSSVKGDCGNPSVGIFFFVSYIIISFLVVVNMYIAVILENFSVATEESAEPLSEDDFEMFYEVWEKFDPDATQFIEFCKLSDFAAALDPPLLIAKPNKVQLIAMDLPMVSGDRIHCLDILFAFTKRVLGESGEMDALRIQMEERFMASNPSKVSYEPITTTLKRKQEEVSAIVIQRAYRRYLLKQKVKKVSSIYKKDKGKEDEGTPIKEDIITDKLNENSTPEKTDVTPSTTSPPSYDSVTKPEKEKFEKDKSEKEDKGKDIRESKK

UniProt Q15858, sequence (Q15858 whole entry): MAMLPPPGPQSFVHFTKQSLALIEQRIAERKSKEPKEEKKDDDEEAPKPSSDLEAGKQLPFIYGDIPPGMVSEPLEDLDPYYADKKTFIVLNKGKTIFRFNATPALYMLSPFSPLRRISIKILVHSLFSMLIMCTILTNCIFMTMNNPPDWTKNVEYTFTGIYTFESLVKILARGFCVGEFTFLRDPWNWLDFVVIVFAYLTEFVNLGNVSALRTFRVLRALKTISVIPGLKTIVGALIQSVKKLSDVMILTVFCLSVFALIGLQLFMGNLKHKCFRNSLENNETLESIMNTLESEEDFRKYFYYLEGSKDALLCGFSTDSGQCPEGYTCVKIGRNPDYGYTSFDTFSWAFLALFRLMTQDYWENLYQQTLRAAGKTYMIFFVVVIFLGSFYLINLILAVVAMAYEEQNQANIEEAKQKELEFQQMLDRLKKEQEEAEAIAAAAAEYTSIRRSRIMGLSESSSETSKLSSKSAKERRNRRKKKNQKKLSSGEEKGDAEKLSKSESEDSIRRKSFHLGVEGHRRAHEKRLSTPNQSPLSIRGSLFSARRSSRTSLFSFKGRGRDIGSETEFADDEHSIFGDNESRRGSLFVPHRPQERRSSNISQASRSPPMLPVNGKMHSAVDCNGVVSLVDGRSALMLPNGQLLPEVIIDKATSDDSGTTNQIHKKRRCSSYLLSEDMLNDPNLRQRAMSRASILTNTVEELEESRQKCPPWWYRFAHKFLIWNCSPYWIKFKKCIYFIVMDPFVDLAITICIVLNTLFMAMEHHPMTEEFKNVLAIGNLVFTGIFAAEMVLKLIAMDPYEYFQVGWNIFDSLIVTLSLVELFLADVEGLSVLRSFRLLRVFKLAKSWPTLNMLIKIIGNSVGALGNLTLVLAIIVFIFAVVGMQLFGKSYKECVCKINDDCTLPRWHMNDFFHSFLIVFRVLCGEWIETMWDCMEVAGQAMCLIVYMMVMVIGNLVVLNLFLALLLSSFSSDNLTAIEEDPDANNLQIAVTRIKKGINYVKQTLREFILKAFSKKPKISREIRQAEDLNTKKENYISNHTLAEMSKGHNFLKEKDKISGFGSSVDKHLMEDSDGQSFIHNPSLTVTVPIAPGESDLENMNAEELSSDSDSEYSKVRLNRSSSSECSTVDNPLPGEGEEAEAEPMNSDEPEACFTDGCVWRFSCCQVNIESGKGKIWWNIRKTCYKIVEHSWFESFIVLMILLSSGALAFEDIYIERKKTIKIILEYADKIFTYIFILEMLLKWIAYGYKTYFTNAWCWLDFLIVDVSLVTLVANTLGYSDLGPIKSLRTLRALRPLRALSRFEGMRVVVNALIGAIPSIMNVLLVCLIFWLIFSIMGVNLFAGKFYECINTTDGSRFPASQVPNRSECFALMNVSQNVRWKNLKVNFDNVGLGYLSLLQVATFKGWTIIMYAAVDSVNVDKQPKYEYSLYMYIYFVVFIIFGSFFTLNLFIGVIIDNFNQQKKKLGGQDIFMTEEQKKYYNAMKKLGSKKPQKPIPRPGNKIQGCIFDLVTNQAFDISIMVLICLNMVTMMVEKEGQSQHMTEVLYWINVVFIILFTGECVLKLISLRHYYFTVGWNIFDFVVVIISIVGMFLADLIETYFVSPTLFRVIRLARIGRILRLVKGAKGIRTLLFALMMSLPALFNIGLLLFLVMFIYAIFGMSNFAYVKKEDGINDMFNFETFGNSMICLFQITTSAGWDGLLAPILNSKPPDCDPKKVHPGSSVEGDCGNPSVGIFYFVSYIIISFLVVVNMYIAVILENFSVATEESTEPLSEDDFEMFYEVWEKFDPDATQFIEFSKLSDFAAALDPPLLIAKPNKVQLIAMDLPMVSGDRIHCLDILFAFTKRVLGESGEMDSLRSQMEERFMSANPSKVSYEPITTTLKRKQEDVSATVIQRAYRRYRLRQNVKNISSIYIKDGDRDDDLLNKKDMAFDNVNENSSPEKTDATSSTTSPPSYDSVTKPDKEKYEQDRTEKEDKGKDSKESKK

Consider “mu-conotoxin KIIIA (from UniProt P0C195)”, for which the values for the Kd (in data set [1]; in the data set with NaV1.7 (Homo sapiens); in data set [2]) were 37 nM, 97 nM and 5 nM, respectively.
